The text below walks through data of doi:10.1101/2024.12.31.630886.

In assay [1] the target is IatT, GCN5-related N-acetyltransferase (GNAT) of the iat lasso peptide BGC (Actinosynnema mirum DSM 43827). The assay can be described thus: ITC. (ITC needs no label: the signal is the heat of the interaction.)
The target is the same in assay [2]. As to the kind of experiment: cryo-EM structure.

“mirusin B (compound 2), monoacetylated lasso peptide”: the stoichiometry N (molar equivalent) in assay [1] worked out at 1.

On to “mirusin C (compound 3), diacetylated lasso peptide”, for which, in assay [1], the stoichiometry N (molar equivalent) worked out at 1.

On to “IatT, GCN5-related N-acetyltransferase (GNAT) of the iat lasso peptide BGC (enzyme)”, for which the stoichiometry N in assay [2] came out at 14.

The stoichiometry N is the number of molecules, sites or subunits per partner or assembly.
